Measurements: publication PMC5490261, “The structural and functional characterization of human RecQ4 reveals insights into its helicase mechanism”
Positions count from the first letter of the chain named.

How the values were obtained:
Conditions in all cases: protein: recombinant; tags: Trx-His6 removed by 3C protease; label: 5' Cy3
[1] = target: T1, RecQ4 427-1208 H615L (Homo sapiens, UniProt O94761 427-1208, H615L); assay: fluorescence polarization; WT-like affinity; figure values not assignable from text layer; 20 mM HEPES pH 8.0, 10 mM NaCl, 5% glycerol, 1 mM MgCl2, 0.5 mM TCEP, 0.5 nM Cy3-ssDNA; temperature not stated
T1 sequence: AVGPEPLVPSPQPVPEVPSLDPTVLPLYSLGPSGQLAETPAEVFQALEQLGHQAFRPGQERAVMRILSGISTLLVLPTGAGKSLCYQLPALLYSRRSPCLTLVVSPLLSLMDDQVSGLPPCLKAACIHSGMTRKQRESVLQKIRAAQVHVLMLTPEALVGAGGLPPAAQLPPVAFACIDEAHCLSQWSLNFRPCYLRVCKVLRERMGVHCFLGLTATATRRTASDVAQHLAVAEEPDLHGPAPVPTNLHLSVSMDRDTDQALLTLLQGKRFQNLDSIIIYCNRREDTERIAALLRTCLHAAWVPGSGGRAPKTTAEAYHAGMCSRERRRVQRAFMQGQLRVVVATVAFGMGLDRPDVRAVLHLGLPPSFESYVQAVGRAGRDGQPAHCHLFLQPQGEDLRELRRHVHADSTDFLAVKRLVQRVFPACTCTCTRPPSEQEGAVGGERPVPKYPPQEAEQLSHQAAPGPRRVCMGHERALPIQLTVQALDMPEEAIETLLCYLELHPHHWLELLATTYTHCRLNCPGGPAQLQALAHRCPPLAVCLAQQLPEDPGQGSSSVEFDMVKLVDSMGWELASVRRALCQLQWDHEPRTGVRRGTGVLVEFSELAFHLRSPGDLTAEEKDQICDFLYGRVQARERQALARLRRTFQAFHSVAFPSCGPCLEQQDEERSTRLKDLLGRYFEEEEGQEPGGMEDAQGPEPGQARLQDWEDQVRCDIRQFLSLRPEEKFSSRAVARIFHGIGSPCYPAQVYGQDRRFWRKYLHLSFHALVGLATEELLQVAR

[2] = target: T2, RecQ4 427-1208 K1048A (Homo sapiens, UniProt O94761 427-1208, K1048A); assay: fluorescence polarization; WT-like, low nM apparent Kd; 20 mM HEPES pH 8.0, 10 mM NaCl, 5% glycerol, 1 mM MgCl2, 0.5 mM TCEP, 0.5 nM Cy3-ssDNA; temperature not stated
T2 sequence: T1 sequence with L189H, K622A

[3] = target: T3, RecQ4 427-1208 K843A/R844E/R848A (Homo sapiens, UniProt O94761 427-1208, K843A;R844E;R848A); assay: as above
T3 sequence: T1 sequence with L189H, K417A, R418E, R422A

Measured: binding result

CCATTCCACCCTCTATTTTTTTTTTTTTTT (ssDNA) [T3-Cy3]
binds: [1] | [2] | [3]
